Laboratory results: the supplement of paper PMC10567573
± gives the standard deviation.

Experiment: protein stability index of a GFP-peptide fusion (GPS, HEK-293T) (PSI 1-6); higher = more stable
[1] = treatment: DMSO, c terminus: a fixed tail appended
[2] = treatment: MLN4924 1 uM, 8 h, c terminus: a fixed tail appended
[3] = treatment: DMSO, c terminus: native
[4] = treatment: MLN4924 1 uM, 8 h, c terminus: native
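Also: 24-mer peptide tiles fused after GFP, lentivirally expressed, FACS-sorted into six equal bins by GFP/DsRed ratio, decoded by Illumina sequencing, PSI is the read-weighted mean bin number.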

Sequence | protein stability index [1] | protein stability index [2] | protein stability index [3] | protein stability index [4]
PARLLLQALQAGPEGARRGLGVLR [FANCE] | 2.67 ± 0.16 | 2.82 ± 0.34 | – | –
TSSASVTTTSNASGRRTSDVRRP [KRT13] | – | – | 2.88 ± 0.77 | 3.58 ± 0.76
ITSETTSTTTTTHITKTVKGGISE [EPB41L3] | 5.06 ± 0.22 | 4.69 ± 0.79 | – | –
QEKDQEMERLRELQRASILDMRRD [FBF1] | 4.86 ± 0.22 | 4.79 ± 0.24 | – | –
ACGVILYILLVGYPPFWDEDQHKL [CAMK2B] | 3.05 ± 0.85 | 2.93 ± 0.38 | – | –
GGRPGGRGAPAVQQNIPSTLLQDH [WAS] | 4.81 ± 0.13 | 4.77 ± 0.23 | – | –
SGMGGRAPVSRGRDSYGGPPRREP [RBMX] | 4.45 ± 0.28 | 4.61 ± 0.29 | – | –
EDIALNKHRSRRKWCFWNSSPAVA [RHOBTB1] | 2.31 ± 0.22 | 2.28 ± 0.23 | – | –
RQTTGLMEYCLEVIKENDPSGFLQ [TRIM9] | 3.11 ± 0.24 | 3.05 ± 0.34 | – | –
RQEAIYEMSRGEQDLIEDLKLARK [NET1] | 4.69 ± 0.18 | 4.79 ± 0.099 | – | –
DCLLCFPETLPESSLFSVEANSSN [C8orf76] | 3.58 ± 0.29 | 3.58 ± 0.6 | – | –
AVIDSEKDMNFLKRYAGREEHWVG [CD69] | 2.72 ± 0.39 | 3.08 ± 0.29 | – | –
LQQLRARLQGLEADCVRGPDGVCL [PBXIP1] | 2.7 ± 0.29 | 3.01 ± 0.35 | – | –
ACGGTRDQLFMQEKARQLLGRLKP [MYBL2] | 3.39 ± 0.54 | 3.29 ± 0.38 | – | –
RRIHSLPQKLLGCSPALKRSHSDS [CDC25A] | 4.89 ± 0.29 | 5.21 ± 0.078 | – | –
NNMNAVNLFFAWIKIFKYISFNKT [PKD2L1] | 2.81 ± 0.46 | 2.58 ± 0.54 | – | –
AMYISQEEWGHQDPSKRALSRDTV [ZNF263] | 3.81 ± 0.12 | 4.06 ± 0.14 | – | –
RKPKVIECSYTSADGQRHHSKLLV [DHCR7] | 2.72 ± 0.13 | 2.93 ± 0.28 | – | –
AGHRRPAGGIRESKESSKEKKLTV [C22orf31] | 5.05 ± 0.41 | 4.86 ± 0.38 | – | –
FPKDTLMNLHVYISEHEHFTDFNA [CLPTM1] | 2.37 ± 0.24 | 1.99 ± 0.42 | – | –
LRRAWFSWPRASPASGASSIKPEA [SCNN1D] | 2.99 ± 0.18 | 3.04 ± 0.19 | – | –
VYNAARDGKLQLLQKLLSGRSREE [FEM1A] | 2.77 ± 0.15 | 2.79 ± 0.27 | – | –
ALSGKYSREFFNRRGELRHITKLK [SRPK2] | 2.87 ± 0.15 | 3.28 ± 0.27 | – | –

Sequence | protein stability index [1] | protein stability index [2] | protein stability index [3] | protein stability index [4]
SSREDSLEAGLPLQVRGYPEEKKE [CHGA] | 5.49 ± 0.21 | 5.5 ± 0.3 | – | –
RDFDNNTPLHIAAQNNCPAIMNAL [FEM1A] | 3.36 ± 0.3 | 3.46 ± 0.41 | – | –
DYSASEYRWHINFTTFFIDCMAAL [SCD] | 2.54 ± 0.17 | 2.63 ± 0.47 | – | –
ISLINTRMLFWACSTNKPEGYRVS [FAF2] | 2.5 ± 0.61 | 2.35 ± 0.39 | – | –
QIKDFKEKIQQDADSVITVGRGEV [ACBD3] | 5.06 ± 0.18 | 5.06 ± 0.32 | – | –
KLSSFYSLKLIKRLYVDKSLNLST [SERPINB5] | 2.46 ± 0.42 | 2.18 ± 0.36 | – | –
EGAIAVHCKAGLGRTGTLIACYVM [CDC14A] | 3.02 ± 0.56 | 2.86 ± 0.51 | – | –
YSDNPCSCSQSHCCSRYLCMGAMS [SPRY1] | 2.62 ± 0.22 | 2.71 ± 0.35 | – | –
YRLTEHERAHKGEKPYGCSECGKA [ZNF649] | 4.55 ± 0.38 | 4.85 ± 0.36 | – | –
GNLSVLDVGCISVTVPSMLSRLLS [OR3A1] | 2.09 ± 0.49 | 2.29 ± 0.18 | – | –
TKWVDYSNKYGFGYQLSDHTVGVL [PLK2] | 2.19 ± 0.33 | 2.08 ± 0.19 | – | –
DAGGIPRTAQSEETRVWHRRDGKW [CAMK2A] | 4.92 ± 0.13 | 4.86 ± 0.1 | – | –
AAVESVLHLGLPWRMLRPQLVNSS [PPEF2] | 2.74 ± 0.81 | 2.46 ± 0.41 | – | –
KNIFRIRFHDPSPAQSHTLQANDV [NET1] | 2.76 ± 0.31 | 3.06 ± 0.24 | – | –
LGKLPPQYALELLTVYAWERGSMK [OAS1] | 2.31 ± 0.61 | 2.36 ± 0.41 | – | –
RDLTQEQTEKLLQFQDLTGIESMD [FAF2] | 5.04 ± 0.11 | 5.05 ± 0.16 | – | –
NSRVDDTFWASWRAFAQIGPARSG [MIR22HG] | 2.6 ± 0.32 | 2.79 ± 0.35 | – | –
LYLNLALHLASDFFLKHPDKDVRL [PDS5B] | 2.73 ± 0.41 | 3.29 ± 0.27 | – | –
REDQLDTVLAVLEDSSRDIREALH [INTS4] | 4.21 ± 0.36 | 4.38 ± 0.34 | – | –
FFPWREAKPGSTEKGLPLRKTHVL [MFSD9] | 2.72 ± 0.28 | 2.82 ± 0.076 | – | –
SETGSTGALETRSLKDHKVSFLRS [C2CD2L] | 4.48 ± 0.29 | 4.46 ± 0.19 | – | –
VLLMKDRETNKSRGFAFVTFESPA [RBMX] | 2.06 ± 0.47 | 2.2 ± 0.41 | – | –
NQRIIHRDMKPDNILLDEHDTWLS [STK32A] | 3.71 ± 0.33 | 3.63 ± 0.27 | – | –

Sequence | protein stability index [1] | protein stability index [2] | protein stability index [3] | protein stability index [4]
LAQTRAEGQRQAQEYEALLNIKVK [KRT18] | 4.26 ± 0.38 | 4.17 ± 0.15 | – | –
SNIDKKFSAHYDAVEAELKSSTVG [FAM50A] | 4.64 ± 0.18 | 4.83 ± 0.28 | – | –
ADDESETPEELEEEIPVVICAAAG [GLT8D2] | 5.582 ± 0.029 | 5.5 ± 0.35 | – | –
LLEKDYFGLTYRDAENQKNWLDPA [EPB41L3] | 3.1 ± 0.29 | 3.48 ± 0.29 | – | –
LCAIAGVLTIALPVPVIVSNFNYF [KCNA1] | 3.23 ± 0.18 | 3.04 ± 0.32 | – | –
FTKANFWYQPSFHGVDLSALRGAA [CARM1] | 2.38 ± 0.83 | 1.92 ± 0.3 | – | –
PPNGPNLPMATVDIKNPEITTNRF [WASL] | 4.48 ± 0.15 | 4.16 ± 0.29 | – | –
YFHINQTLREAHFHSLQHRGRPLT [FAM104A] | 2.96 ± 0.15 | 3.21 ± 0.31 | – | –
SPQPLASSPGPWGLEALAGGDLMP [FCHO1] | 4.05 ± 0.093 | 4 ± 0.27 | – | –
EALSVPLSLCVSSHLALPAQHHWE [CLPTM1] | 2.15 ± 0.27 | 2.2 ± 0.29 | – | –
SVETLDHDSVVEMIRKGGDQTSLL [PDZK1] | 4.44 ± 0.42 | 4.55 ± 0.28 | – | –
SFVESANSEVYLPNINKISMQAVL [RHOBTB1] | 2.43 ± 0.21 | 2.2 ± 0.34 | – | –
RGENVVLLGEIDLEKESDTPLQQV [LSM1] | 4.96 ± 0.27 | 4.79 ± 0.18 | – | –
SRLMVVVKMDSSIQPGPFRAVLKY [RHOBTB2] | 2.9 ± 0.56 | 2.79 ± 0.53 | – | –
GFENMDFFTLDLEHIADALRAIDF [TRIM63] | 2.11 ± 0.17 | 2.25 ± 0.35 | – | –
MENKSLESSQTDLKLVAHPRAKSK [ZBED1] | 5.26 ± 0.29 | 5.27 ± 0.25 | – | –
MSQTVQRMLVAASWACAFTNALTH [OR3A1] | 3.3 ± 0.22 | 3.31 ± 0.23 | – | –
EFSLVNVNLQRFGMNGQMLCNLGK [ETS2] | 2.32 ± 0.4 | 2.58 ± 0.16 | – | –
QMTPTNLAVCLAPSLFHLNTLKRE [DLC1] | 2.79 ± 0.044 | 2.53 ± 0.036 | – | –
LGSKHKVCMDLRANLKQVKKEDTE [TNNI2] | 4.76 ± 0.16 | 4.94 ± 0.23 | – | –
EPVAAGSGIPEVKCYLNGVKVPGI [CLCN6] | 3.19 ± 0.61 | 3.59 ± 0.34 | – | –
SIKKKFLKRKGKTDSPWIKPARKR [EHMT1] | 3.66 ± 0.082 | 3.71 ± 0.17 | – | –
DMVEFLLEQCSASIEVGGSVNFDG [FEM1C] | 2.17 ± 0.76 | 2.4 ± 0.24 | – | –

Sequence | protein stability index [1] | protein stability index [2] | protein stability index [3] | protein stability index [4]
QFHDLMELFRIGGKSPDTNYLFMG [PPP2CA] | 2.53 ± 0.58 | 2.24 ± 0.39 | – | –
SLLNFLPEGVNKLKISPVTLKEAY [TENT5C] | 2.27 ± 0.23 | 2.41 ± 0.12 | – | –
DGKLSFEEFKAYFADGVLSGEELH [NECAB1] | 4.23 ± 0.28 | 4.14 ± 0.37 | – | –
ARIYIRRTLRNFINDEMQAKGIPQ [PCMTD1] | 2.01 ± 0.33 | 2.15 ± 0.18 | – | –
VADGLCCVLTTPCLTQSTAAPAVR [SLA] | 2.5 ± 0.54 | 2.77 ± 0.2 | – | –
AGGYVDVVKVLLESGASIEDHNEN [ANKRD17] | 3.08 ± 0.24 | 3.12 ± 0.36 | – | –
EAETPPNGPDCGYGSFHQQYWLDG [ATE1] | 3.89 ± 0.31 | 4.15 ± 0.11 | – | –
ALKKRSGKKDKHSQSPRAAGPREG [PBXIP1] | 4.64 ± 0.14 | 4.83 ± 0.34 | – | –
PSGHSDAQTLAMMLQEQLDAINEE [PPFIA4] | 4.94 ± 0.44 | 4.46 ± 0.21 | – | –
FRRFAVHGDARATGREMHGKNWSK [TPPP] | 3.62 ± 0.12 | 3.65 ± 0.33 | – | –
EMSIHLSRPNGTSAMLLVTLGKVL [MED27] | 2.41 ± 0.46 | 2.2 ± 0.26 | – | –
HPSENIIAVAATNNLYIFQDKVN [PPP2R2B] | – | – | 2.44 ± 0.22 | 2.64 ± 0.21
IGSSVMAASLVTMGIVNLNIHMNF [SLC2A12] | 3.05 ± 0.24 | 3.13 ± 0.17 | – | –
DVEVPASVTGYSFASDGDSGTCSP [ADD1] | 5.16 ± 0.19 | 5.29 ± 0.11 | – | –
EEEVVEGEKEVEALKKSADWVSDW [BNIP3L] | 5.08 ± 0.25 | 5.36 ± 0.34 | – | –
LDPVLQAPGTGPAQTELLCCLVKM [FANCE] | 2.47 ± 0.32 | 2.32 ± 0.49 | – | –
TFPHSISAKNTSHPGSGTKVQFNL [SASS6] | 2.89 ± 0.33 | 3 ± 0.46 | – | –
SNPLAREIFRRHFRQLCYQETPGP [ZSCAN9] | 2.28 ± 0.039 | 2.52 ± 0.097 | – | –
CQVFPERLAQGNPQQGFFSSFFTC [ATP23] | 2.07 ± 0.29 | 2.14 ± 0.33 | – | –
KTTLARQLQHDFPRALIFSTDDFF [N4BP2L1] | 2.41 ± 0.28 | 2.53 ± 0.25 | – | –
